# Where “and” joins values, the source holds several entries; their conditions need not be identical. Equal values may be shown once. Entries after “also recorded” stand apart in the source; their conditions may differ.
# B1: Wnt5a: recombinant protein, R&D Systems 645-WN-010 (protein)
# chain: IIGAQPLCSQLAGLSQGQKKLCHLYQDHMQYIGEGAKTGIKECQYQFRHRRWNCSTVDNTSVFGRVMQIGSRETAFTYAVSAAGVVNAMSRACREGELSTCGCSRAARPKDLPRDWLWGGCGDNIDYGYRFAKEFVDARERERIHAKGSYESARILMNLHNNEAGRRTVYNLADVACKCHGVSGSCSLKTCWLQLADFRKVGDALKEKYDSAAAMRLNSRGKLVQVNSRFNSPTTQDLVYIDPSPDYCVRNESTGSLGTQGRLCNKTSEGMDGCELMCCGRGYDQFKTVQTERCHCKFHWCCYVKCKKCTEIVDQFVCK
# modifications: biotin
# Tests used:
# Format in all cases: cell-based
# [1] = tested on: YAP in mouse intestinal organoids; test: whole mount immunostaining for YAP nuclear localization
# Experimental: For whole mount staining, freshly passaged crypts were mixed with Matrigel (Corning, #356231) and mounted to µ-Slide 8 well chamber slides (ibidi, #80826). Media were changed every 2–3 d. 5 days later, organoids in the chamber slides were then fixed in 4% formaldehyde in PBS for 30 min, permeabilized with 0.5% Triton X-100 for 1 h, and incubated in blocking solution (3% normal donkey serum (Sigma-Aldrich, #566460) and 5% BSA (Sigma-Aldrich, #A7979) in 0.1% Triton X-100 + PBS) for 1 h. Primary and secondary antibodies were diluted in blocking solution and added to fixed organoids. Organoids were incubated with primary antibodies overnight at 4 °C and with secondary antibodies for 2 h. ProLong Diamond Antifade Mountant (Invitrogen, # P36970) was added. Images were acquired with a Yokogawa CSU-W1/Zeiss 3i Marianas spinning disk confocal microscopy system. For each organoid, Z-planes up to 100 μm with 1 or 1.5 μm z-steps were acquired to quantify the number of cell types.
# [2] = tested on: mouse intestinal organoids; test: cystic organoid percentage, organoids treated with recombinant Wnt ligands (Wnt3a, Wnt5a, Wnt11); conditions: for percentage of cystic organoids: Fig. 4e, individual mice, n = 3; for cystic organoids (sheet SF.5b): Wnt5a + DMSO, relative to Untreated = 0
# Experimental: (§1) The jejunum part of the small intestine was removed, flushed with PBS, opened longitudinally, then cut into 0.5 cm pieces. The collected tissues were washed with ice cold PBS multiple times by vortexing and incubated in PBS containing 2.5 mM EDTA for 5 min at 37 °C. After gentle shaking and aspiration, tissues were incubated in PBS containing 5 mM EDTA for 7 min at 37 °C. Tissues were then washed with PBS to remove EDTA and vigorously shaken to release crypts. The released crypts were passed through 70 μm strainers, washed with PBS, and pelleted by centrifugation at 200 × g. Resuspended crypts were mixed with Matrigel (Corning, #356231; Lot#8218007) and pipetted into culture plates. After mixture of crypts and Matrigel solidified, IntestiCult Organoid Growth Medium (Stem Cell Technologies, #06005; Lots #1000021927, #1000034230, #1000037372) was added. Seven days after seeding, organoids were resuspended in dissociation buffer (Gentle Cell Dissociation Reagent; Stem Cell Technologies, #07174), dissociated by pipetting, and seeded for experiments.
# (§2) 3-4 biological replicates of organoids from different mice were used per condition. Organoids were cultured in the indicated media, inhibitors, antibodies and/or recombinant proteins for 5 d and fixed in 4% formaldehyde in PBS. Organoids were imaged with a 4× Plan Fluor objective (NA: 0.13, Nikon) on a Nikon Ti-E inverted microscope equipped with a Neo scMOS camera (Andor, Oxford Instruments), a linear encoded automated stage (Applied Scientific Instrumentation), all run by NIS Elements software (Nikon). Organoids were imaged in brightfield and images covering the whole well were stitched and focused into one image projection with an extended depth of focus module (EDF; Nikon). One hundred to 200 organoids per replicate per condition were counted and used for quantification. The number of budding organoids in each condition was normalized by the number of budding organoids in untreated or DMSO treated controls to calculate cystic organoid percentage:1 Cysticorganoidpercentage=100×1−Numberofbuddingorganoidsfromexperiment/Numberofbuddingorganoidsfromcontrol
# [3] = tested on: cytosolic Ca2+ in mouse intestinal organoids; test: live Ca2+ imaging of mouse intestinal organoids (GCaMP6f/tdTomato: baselined area under curve, peak number, height, width); conditions: live organoids expressing GCaMP6f
# Experimental: Z stacks were acquired every 10 s.
# Z-stack images were converted to mean intensity projections and, where required; background was subtracted using a rolling ball algorithm. Segmentation was conducted on a max-projection over-time of the GCaMP6f channel using Cellpose’s pre-trained “Cytoplasm” classifier. Mean intensity traces were measured in each ROI over the time course in both the GCaMP6f and TdTomato channels using scikit-image[138]. Ca^2+ oscillation patterns were calculated in an unsupervised, automated manner using MATLAB. Mean intensity traces were smoothed using a Savitzky-Golay filter and peaks were identified using the “findpeaks” algorithm from the MATLAB Signal Processing Toolbox. Graphs for GCaMP6f/tdTomato fluorescence ratio, peak numbers, peak height, peak width and baselined area under the curve were generated using Python matplotlib and seaborn packages. Statistical analysis was performed using Python SciPy and scikit-post-hoc packages.
# [4] = tested on: β-Catenin-dependent Wnt signaling (HEK293-TB cells); test: TOPbrite dual-luciferase Wnt reporter assay; conditions: SF.3e
# Experimental: Generation of HEK293 cells stably expressing a TOPbrite firefly luciferase Wnt reporter and pRL-SV40 Renilla luciferase (HEK293-TB) was previously described. HEK293-TB cells were maintained in DMEM/F12 (50:50), supplemented with 10% FBS, 2 mM Glutamax (Gibco, #35050-061) and 40 μg/ml hygromycin (Cellgro, #30-240-CR). For the luciferase reporter assay, HEK293-TB cells were seeded in 96-well plates (Falcon, #353377). The next day, cells were treated with indicated Wnt ligands (50 ng/ml) or CM diluted in culture media. After 24 h, the firefly and Renilla luciferase activity was measured using Dual-Glo Luciferase Assay system (Promega, #E2940) on a Perkin Elmer EnVision multilabel reader. The ratios of firefly luminescence to Renilla luminescence were calculated and normalized to control samples that were not treated.
# [5] = tested on: mouse intestinal organoids; test: inhibition of Wnt5a-induced cystic organoids; conditions: individual mice, n = 3
# Experimental: as §1, §2
# [6] = tested on: mouse intestinal organoids; test: RNAseq of intestinal organoids; conditions: 2 days
# Experimental: Total RNA was isolated using the RNeasy Plus Mini Kit (Qiagen, #74134) per manufacturer’s instructions. Total RNA was quantified with Qubit RNA HS Assay Kit (Thermo Fisher Scientific, #Q32852) and quality was assessed using RNA ScreenTape on 4200 TapeStation (Agilent Technologies, #5067-5576). cDNA library was generated from 2 ng of total RNA using Smart-Seq V4 Ultra Low Input RNA Kit (Takara, #634894). 150 pg of cDNA was used to make sequencing libraries by Nextera XT DNA Sample Preparation Kit (Illumina, #FC-131-1024). Libraries were quantified with Qubit dsDNA HS Assay Kit (Thermo Fisher Scientific, #Q32851) and the average library size was determined using D1000 ScreenTape on 4200 TapeStation (Agilent Technologies, #5067-5582). Libraries were pooled and sequenced on NovaSeq 6000 (Illumina) to generate 30 millions single-end 50-base pair reads for each sample.
# Sequencing reads were filtered and aligned using HTSeqGenie v4.2.2. […] Reads within coding sequences were counted to determine an estimate of gene expression. Read counts were scaled by library size, quantile normalized and precision weights were calculated using the voom R package. […] Differential gene expression was calculated using voom+limma with multiple-hypothesis correction of P values performed using the Benjamini-Hochberg method. […]
molecule,measurement,setting,value
B1,effect on nuclear localization of YAP,[1],increased nuclear localization of YAP
same,percentage of cystic organoids,[2]; Wnt5a 25 ng/ml,14.1026% and 5.06% and 6.32%
same,percentage of cystic organoids,[2]; Wnt5a 50 ng/ml,23.3312% and 3.761% and 10.619%
same,percentage of cystic organoids,[2]; Wnt5a 100 ng/ml,26.0174% and 31.7553% and 21.762%
same,percentage of cystic organoids,[2]; Wnt5a 250 ng/ml,40.092% and 41.2431% and 44.3989%
same,percentage of cystic organoids,[2]; Wnt5a 500 ng/ml,62.8247% and 56.8452% and 53.6325%
same,cystic organoids (sheet SF.5b),[2]; replicate 1,22.713
same,cystic organoids (sheet SF.5b),[2]; replicate 2,18.3144
same,cystic organoids (sheet SF.5b),[2]; replicate 3,19.185
same,cystic organoids (sheet SF.5b),[2]; replicate 4,14.2949
same,cystic organoid size,[2]; Wnt5a compared to Wnt3a,larger than those treated with Wnt3a
same,induction of cystic organoids,[2]; recombinant Wnt ligand added to crypt cultures,dose-dependently increased organoids with cystic morphology
same,effect on cytosolic Ca2+ levels and oscillations,[3],cytosolic Ca^2+ levels and oscillations increased; also recorded: modulate cytosolic Ca^2+ oscillations
same,TOPbrite dual-luciferase Wnt reporter activity,[4]; replicate 1,0.3121
same,TOPbrite dual-luciferase Wnt reporter activity,[4]; replicate 2,0.2591
same,TOPbrite dual-luciferase Wnt reporter activity,[4]; replicate 3,1.226
same,TOPbrite dual-luciferase Wnt reporter activity,[4]; replicate 4,1.185
same,percentage of cystic organoids,"[5]; Fig. 4g, Wnt5a + DMSO",46.8995% and 39.0061% and 36.0342%
same,percentage of cystic organoids,"[5]; Fig. 4i, Wnt5a + IgG",49.9365% and 63.1809% and 67.3433%
same,Ptk7-dependent DEGs with TEAD binding motifs,[6],increased expression
